Laboratory results: PMC8373891

T1: IFNAR1/IFNAR2 receptor (human (endogenous in HEK293)) (UniProt P17181)
T1 sequence 1: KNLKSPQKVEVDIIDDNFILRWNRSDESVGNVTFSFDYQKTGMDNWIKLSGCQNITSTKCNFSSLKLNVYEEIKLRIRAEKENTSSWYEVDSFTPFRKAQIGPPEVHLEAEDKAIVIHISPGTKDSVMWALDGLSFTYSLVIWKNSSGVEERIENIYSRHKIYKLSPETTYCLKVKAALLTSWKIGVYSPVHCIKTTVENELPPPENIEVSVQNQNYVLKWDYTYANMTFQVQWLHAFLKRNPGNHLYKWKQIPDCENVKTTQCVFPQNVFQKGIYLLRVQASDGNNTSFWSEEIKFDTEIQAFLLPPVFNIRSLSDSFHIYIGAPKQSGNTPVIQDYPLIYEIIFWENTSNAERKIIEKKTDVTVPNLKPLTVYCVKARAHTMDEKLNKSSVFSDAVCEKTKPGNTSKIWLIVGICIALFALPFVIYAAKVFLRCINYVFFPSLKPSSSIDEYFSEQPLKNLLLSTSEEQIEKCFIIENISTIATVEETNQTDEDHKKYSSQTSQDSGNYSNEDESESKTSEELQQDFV
T1 sequence 2: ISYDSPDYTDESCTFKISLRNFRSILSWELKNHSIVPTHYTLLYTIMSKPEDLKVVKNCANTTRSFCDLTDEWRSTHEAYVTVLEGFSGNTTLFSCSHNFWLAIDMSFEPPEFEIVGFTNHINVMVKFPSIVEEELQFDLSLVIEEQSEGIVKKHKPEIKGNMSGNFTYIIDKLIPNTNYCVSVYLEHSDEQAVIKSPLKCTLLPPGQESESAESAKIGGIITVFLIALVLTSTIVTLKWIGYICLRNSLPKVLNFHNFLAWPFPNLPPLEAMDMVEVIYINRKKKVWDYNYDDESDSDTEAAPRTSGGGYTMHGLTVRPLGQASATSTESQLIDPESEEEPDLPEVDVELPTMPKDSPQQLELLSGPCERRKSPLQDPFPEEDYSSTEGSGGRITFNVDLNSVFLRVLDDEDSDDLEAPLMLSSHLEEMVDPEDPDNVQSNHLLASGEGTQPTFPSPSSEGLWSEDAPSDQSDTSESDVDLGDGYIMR


Biological target: T1, IFNAR1/IFNAR2 receptor (human (endogenous in HEK293))

EC50 of ISG54-driven secreted embryonic alkaline phosphatase in the HEK293 (HEK-BLUE IFN-αβ) reporter cell line, dose response, 24 h	Binder
0.3 nM	IFNα-10 (ligand) CDLPQTHSLGNRRALILLGQMGRISPFSCLKDRHDFRIPQEEFDGNQFQKAQAISVLHEMIQQTFNLFSTEDSSAAWEQSLLEKFSTELYQQLNDLEACVIQEVGVEETPLMNEDSILAVRKYFQRITLYLIERKYSPCAWEVVRAEIMRSLSFSTNLQKRLRRKD
3.3 nM	IFNα-7 (ligand) CDLPQTHSLRNRRALILLAQMGRISPFSCLKDRHEFRFPEEEFDGHQFQKTQAISVLHEMIQQTFNLFSTEDSSAAWEQSLLEKFSTELYQQLNDLEACVIQEVGVEETPLMNEDFILAVRKYFQRITLYLMEKKYSPCAWEVVRAEIMRSFSFSTNLKKGLRRKD
